The source of these data is paper PMC10086585 (2023).

The target in the assay is human recombinant netrin‐1, on AHC biosensors (human, UniProt O95631 25-604). The experiment in a line: BLI. On the technique in general: BLI is a label-free optical method that tracks binding on a fibre tip over time.

B1: fibronectin leucine‐rich transmembrane protein (FLRT1), recombinant human (natural protein)
chain: IDSTTCPSVCRCDNGFIYCNDRGLTSIPADIPDDATTLYLQNNQINNAGIPQDLKTKVNVQVIYLYENDLDEFPINLPRSLRELHLQDNNVRTIARDSLARIPLLEKLHLDDNSVSTVSIEEDAFADSKQLKLLFLSRNHLSSIPSGLPHTLEELRLDDNRISTIPLHAFKGLNSLRRLVLDGNLLANQRIADDTFSRLQNLTELSLVRNSLAAPPLNLPSAHLQKLYLQDNAISHIPYNTLAKMRELERLDLSNNNLTTLPRGLFDDLGNLAQLLLRNNPWFCGCNLMWLRDWVKARAAVVNVRGLMCQGPEKVRGMAIKDITSEMDECFETGPQGGVANAAAKTTASNHASATTPQGSLFTLKAKRPGLRLPDSNIDYPMATGDGAKTLAIHVKALTADSIRITWKATLPASSFRLSWLRLGHSPAVGSITETLVQGDKTEYLLTALEPKSTYIICMVTMETSNAYVADETPVCAKAETADSYGPTTTLNQEQNAGPMASLP
Consider B1, for which the Kd turned out to be 20.7 nM.

Broadly, the Kd is the constant that tells how readily two partners part at equilibrium.
